# Measured values: publication PMC11239668
# Assays:
# [1] = biological target: filamentous actin (F-actin) polymerized from G-actin purified from rabbit skeletal muscle (rabbit) (UniProt P68135)
# [2] = biological target: filamentous actin (F-actin) polymerized from G-actin purified from rabbit skeletal muscle (rabbit) (UniProt P68135); remark: listed apart in the source
"percent activation of localisation to F-actin (0% inactive optoCAST, 100% ABM only) in live HeLa cells under blue light [1] [%]","percent activation of localisation to F-actin (0% inactive pepCAST, 100% ABM only) in live HeLa cells that co-express SZ21 [2] [%]",Substance
80,–,ABS optoCAST (ABS opto1: mCherry-AsLOV2(403-540)-ABS) (from UniProt O49003 403-540) (designed binder)
–,> 80,ABS pepCAST (ABS pep6: SZ3-linker-ABS-linker-SZ4-eGFP) (designed binder)
